# Data from PMC7265457, “A disulfide constrains the ToxR periplasmic domain structure, altering its interactions with ToxS and bile-salts” (Scientific Reports, 2020).
# T1: V. cholerae ToxS periplasmic domain tagged with an N-terminal chitin binding domain (V. cholerae, UniProt P24003 26-173)
# T1 construct: also called CBD-ToxSp
# T1 sequence: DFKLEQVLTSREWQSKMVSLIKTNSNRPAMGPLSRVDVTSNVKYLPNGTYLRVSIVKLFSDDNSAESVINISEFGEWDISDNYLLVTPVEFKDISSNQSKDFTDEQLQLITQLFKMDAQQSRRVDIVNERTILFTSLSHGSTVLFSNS
# B1: V. cholerae non-disulfide bonded ToxR periplasmic domain (domain or fragment)
# chain: TNPSQTSFKPLTVVDGVAVNMPNNHPDLSNWLPSIELCVKKYNEKHTGGLKPIEVIATGGQNNQLTLNYIHSPEVSGENITLRIVANPNDAIKVCE
# notes: also called Vc-ToxRp
# Target: T1, V. cholerae ToxS periplasmic domain …
# Experiment: pull-down
# Details: both partners purified
binder,measurement,value
B1,amount pulled down (buffer) relative to Vc-dbToxRp with CDC,0.22 relative level
